Laboratory results as given in patent US20030223992A1 (SCHERING, published 2003).
Where no end group is shown, it is not given here.

Biological target: T1, Human SP9155 receptor (human, UniProt Q96P65 1-431)
T1 sequence: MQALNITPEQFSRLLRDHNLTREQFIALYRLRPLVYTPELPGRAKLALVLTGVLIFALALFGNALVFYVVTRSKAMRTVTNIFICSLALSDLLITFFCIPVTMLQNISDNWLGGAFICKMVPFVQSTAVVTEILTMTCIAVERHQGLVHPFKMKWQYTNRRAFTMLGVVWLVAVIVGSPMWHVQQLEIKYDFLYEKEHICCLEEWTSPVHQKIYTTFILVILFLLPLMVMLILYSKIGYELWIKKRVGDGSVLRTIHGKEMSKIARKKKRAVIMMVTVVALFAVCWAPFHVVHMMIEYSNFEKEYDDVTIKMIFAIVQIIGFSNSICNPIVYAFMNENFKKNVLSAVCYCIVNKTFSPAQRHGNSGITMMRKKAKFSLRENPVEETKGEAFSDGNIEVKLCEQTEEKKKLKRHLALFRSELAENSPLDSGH
Assay: cell-based or functional assay

GGFSFRF-NH2 [Human P52] and KKGGFSFRF-NH2 [Human P517] are within 1.5-fold of each other in “EC50 (nM), Ca2+ flux (FLIPR) in HEK293 cells transfected with SP9155 receptor” value: 245 nM for the first, 235 nM for the second.

First: KGGFSFRF-NH2 [Human P513]
Second: EHAGCRFRF-NH2 [Human P51]
The “EC50 (nM), Ca2+ flux (FLIPR) in HEK293 cells transfected with SP9155 receptor” value of the first is 6-fold lower: 258 nM for the first, 1560 nM for the second.
